Data as given in US6753317 (US Dept. of Health and Human Services, dated 2004).
Starred links: 1 amine or outer side, 2 acyl side, 3 side chain; linkers in the order of their positions; H or OH if unused. Non-standard residues stand in square brackets, D forms with d. *: point of attachment. des‑NH2‑α‑pyrrolidine‑1‑yl = Dmt (2',6'-dimethyl-L-tyrosine) with the α-amine replaced by pyrrolidine-1-yl, Cc1cc(O)cc(C)c1C[C@@H](C(=O)*)N1CCCC1; des‑NH2‑α‑piperidine‑1‑yl = Dmt (2',6'-dimethyl-L-tyrosine) with the α-amine replaced by piperidine-1-yl, Cc1cc(O)cc(C)c1C[C@@H](C(=O)*)N1CCCCC1; βTic = 1,2,3,4-tetrahydroisoquinoline-3-yl acetic acid, O=C(C[C@@H]1Cc2ccccc2CN1[*:1])[*:2]; des‑NH2‑α‑pyrrole‑1‑yl = replacement of the α-amino group by a pyrrol-1-yl group; NH(1-Adamantyl) = C1C2CC3CC1CC(N*)(C2)C3; Dmt = Cc1cc(O)cc(C)c1C[C@H](N)C(=O)O; NH‑tetrazole‑5‑yl = n1nc(N*)n[nH]1; Tic = O=C(O)[C@@H]1Cc2ccccc2CN1; dTic = O=C(O)[C@H]1Cc2ccccc2CN1; NHtBu = CC(C)(C)N*

B1: dermorphin: H-Tyr-D-Ala-Phe-Gly-Tyr-Pro-Ser-NH2 (peptide)
peptide: H-Y[dA]FGYPS-NH2
B2: N,N(Me)2-Dmt-Tic-NHMe (peptide)
peptide: {N,N‑dimethyl}-[Dmt]-[Tic]-NHMe
B3: H-Dmt-Tic-Ala-NH-1-adamantane (peptide)
peptide: H-[Dmt]-[Tic]-Ala-{NH(1-Adamantyl)}
B4: H-Dmt-Tic-Ala-NHMe (peptide)
peptide: H-[Dmt]-[Tic]-Ala-NHMe
SMILES: CNC(=O)[C@H](C)NC(=O)[C@@H]1Cc2ccccc2CN1C(=O)[C@@H](N)Cc1c(C)cc(O)cc1C
B5: H-Dmt-Tic-NH-tBu (peptide)
peptide: H-[Dmt]-[Tic]-NHtBu
SMILES: Cc1cc(O)cc(C)c1C[C@H](N)C(=O)N1Cc2ccccc2C[C@H]1C(=O)NC(C)(C)C
B6: N,N(Me)2-Dmt-D-Tic-NH-1-adamantane (peptide)
peptide: {N,N‑dimethyl}-[Dmt]-[dTic]-{NH(1-Adamantyl)}
B7: H-(R,S)Dmt-Tic-OH (peptide)
peptide: H-[Dmt]-[Tic]-OH
modifications: also: (R,S)-Dmt, racemic, mixture of diastereomers
B8: H-Dmt-βTic-OH (peptide)
peptide: H-[Dmt]-[βTic]-OH
B9: [des-NH2-α-piperidine-1-yl]-Dmt-Tic-OH (peptide)
peptide: {des‑NH2‑α‑piperidine‑1‑yl}-[Dmt]-[Tic]-OH
B10: H-Dmt-Tic-NH-tetrazole-5-yl (peptide)
peptide: H-[Dmt]-[Tic]-{NH‑tetrazole‑5‑yl}
B11: [des-NH2-α-pyrrolidine-1-yl]-Dmt-Tic-OH (peptide)
peptide: {des‑NH2‑α‑pyrrolidine‑1‑yl}-[Dmt]-[Tic]-OH
B12: H-Dmt-D-Tic-NH-1-adamantane (peptide)
peptide: H-[Dmt]-[dTic]-{NH(1-Adamantyl)}
B13: [des-NH2-α-pyrrole-1-yl]-Dmt-Tic-OH (peptide)
peptide: {des‑NH2‑α‑pyrrole‑1‑yl}-[Dmt]-[Tic]-OH
B14: H-Dmt-Tic-Ala-NH-tBu (peptide)
peptide: H-[Dmt]-[Tic]-Ala-NHtBu
SMILES: Cc1cc(O)cc(C)c1C[C@H](N)C(=O)N1Cc2ccccc2C[C@H]1C(=O)N[C@@H](C)C(=O)NC(C)(C)C
B15: N,N(Me)2-Dmt-Tic-NH-1-adamantane (peptide)
peptide: {N,N‑dimethyl}-[Dmt]-[Tic]-{NH(1-Adamantyl)}
B16: N,N(Me)2-Dmt-Tic-NH-tBu (peptide)
peptide: {N,N‑dimethyl}-[Dmt]-[Tic]-NHtBu
B17: H-Dmt-Tic-NHMe (peptide)
peptide: H-[Dmt]-[Tic]-NHMe
B18: H-Dmt-Tic-NH-1-adamantane (peptide)
peptide: H-[Dmt]-[Tic]-{NH(1-Adamantyl)}
SMILES: Cc1cc(O)cc(C)c1C[C@H](N)C(=O)N1Cc2ccccc2C[C@H]1C(=O)NC12CC3CC(CC(C3)C1)C2
B19: H-Dmt-Tic-Ala-NH2 (peptide)
peptide: H-[Dmt]-[Tic]-Ala-NH2

These binders were tested against T1, µ-opioid receptor of the guinea pig ileum (GPI) (guinea pig) (assay: cell-based or functional assay).
With B1 the “IC50 (µ agonist activity, GPI)” value was 0.00182 µM.

Molecular target: T1, µ-opioid receptor of the guinea pig …
Test: cell-based or functional assay
Remark: another data set of the same source
In the case of B2, the “GPI ED50” value is reported as greater than 10 µM, the “GPI Ke” value is reported as 0.39 µM and the “GPI pA2” value is reported as 6.41.
In the case of B3, the “GPI ED50” value is reported as 1 µM.
B4 was tested, and the “GPI ED50” value was 0.29 µM.
With B5 the “GPI ED50” value was 1.04 µM.
B6 was tested, and the “GPI ED50” value was 4.48 µM.
With B7 the “GPI ED50” value was greater than 10 µM.
For B8, the “GPI ED50” value was greater than 10 µM.
For B9, the “GPI ED50” value was greater than 10 µM.
For B10, the “GPI ED50” value was 8.2 µM.
In the case of B11, the “GPI ED50” value is reported as greater than 10 µM.
With B12 the “GPI ED50” value was 1.68 µM.
B13 was tested, and the “GPI ED50” value was greater than 10 µM.
For B14, the “GPI ED50” value was greater than 10 µM, the “GPI Ke” value was 0.17 µM and the “GPI pA2” value was 6.76.
For B15, the “GPI ED50” value was 0.016 µM.
For B16, the “GPI ED50” value was greater than 10 µM and the “GPI Ke” value was 0.3 µM.
In the case of B17, the “GPI ED50” value is reported as greater than 10 µM, the “GPI Ke” value is reported as 1.15 µM and the “GPI pA2” value is reported as 5.94.
For B18, the “GPI ED50” value was 0.036 µM.
For B19, the “GPI ED50” value was 4.74 µM.
